Data on two molecules can be found in patent US20220169688A1 (Dana-Farber, published 2022).

Bridge positions count the residues as written; N and C are the ends. Square brackets hold non-standard residues; d marks the D form. Primed or numbered codes have the meaning given here. Ends that are not written are not given here. R8 = C=CCCCCCC[C@@](C)(N)C(=O)O; S5 = C=CCCC[C@](C)(N)C(=O)O; FITC′ = not defined here; Nle = CCCC[C@H](N)C(=O)O

Assay [1] addresses T1, recombinant human E1 activating enzyme UBA1 (human, UniProt P22314 1-1058, limits assumed).
T1 construct: also called UBE1
T1 sequence: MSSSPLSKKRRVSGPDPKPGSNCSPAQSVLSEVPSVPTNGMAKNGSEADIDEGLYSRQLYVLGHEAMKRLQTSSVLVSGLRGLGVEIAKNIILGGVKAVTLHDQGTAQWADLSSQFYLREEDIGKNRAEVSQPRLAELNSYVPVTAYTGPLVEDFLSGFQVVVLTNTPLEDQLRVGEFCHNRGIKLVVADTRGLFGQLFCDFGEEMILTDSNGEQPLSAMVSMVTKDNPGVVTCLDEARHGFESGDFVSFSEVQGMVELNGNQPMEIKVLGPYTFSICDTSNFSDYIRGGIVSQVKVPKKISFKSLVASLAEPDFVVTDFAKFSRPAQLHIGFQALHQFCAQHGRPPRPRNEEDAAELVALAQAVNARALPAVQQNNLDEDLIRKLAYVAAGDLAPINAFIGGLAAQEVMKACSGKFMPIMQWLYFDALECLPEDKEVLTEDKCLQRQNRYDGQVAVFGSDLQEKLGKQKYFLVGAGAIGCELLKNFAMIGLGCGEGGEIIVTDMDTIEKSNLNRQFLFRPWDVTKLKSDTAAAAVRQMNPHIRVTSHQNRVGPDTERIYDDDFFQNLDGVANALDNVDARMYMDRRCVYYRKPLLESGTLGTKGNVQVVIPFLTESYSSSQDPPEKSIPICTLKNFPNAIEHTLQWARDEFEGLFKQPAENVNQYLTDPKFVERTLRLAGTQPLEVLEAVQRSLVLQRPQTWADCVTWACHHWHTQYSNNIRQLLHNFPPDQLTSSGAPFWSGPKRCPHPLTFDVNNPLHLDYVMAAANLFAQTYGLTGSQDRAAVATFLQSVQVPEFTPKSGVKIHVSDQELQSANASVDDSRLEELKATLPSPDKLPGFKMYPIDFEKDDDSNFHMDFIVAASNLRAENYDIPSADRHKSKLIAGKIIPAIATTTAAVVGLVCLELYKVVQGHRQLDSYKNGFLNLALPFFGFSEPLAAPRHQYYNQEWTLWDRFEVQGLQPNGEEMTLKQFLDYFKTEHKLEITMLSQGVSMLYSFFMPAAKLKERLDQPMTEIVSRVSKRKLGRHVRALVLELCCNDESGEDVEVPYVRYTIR
Put plainly: streptavidin-biotin pull-down, silver-stained protein gel. As for the experimental part: (§1) 30 μL of pre-equilibrated streptavidin agarose beads were then added and incubated for an additional 1.5 hours at 4° C. The beads were pelleted by centrifugation and washed three times with NP-40 buffer (20 mM HEPES, pH 7.4, 50 mM NaCl, 5 mM DTT, 0.5% [v/v] NP-40) before eluting the protein sample from the beads by heating at 70° C. for 10 min in 3×SDS loading buffer. Samples were subjected to electrophoresis and silver staining (Pierce 24612). […] 30 μL of pre-equilibrated streptavidin agarose beads (ThermoFisher 20357) were then added and incubated for an additional 1.5 hours at 4° C. The beads were pelleted by centrifugation and washed three times with NP-40 buffer (20 mM HEPES, pH 7.4, 50 mM NaCl, 5 mM DTT, 0.5% [v/v] NP-40) before eluting the protein sample from the beads by heating at 70° C. for 10 min in 3×SDS loading buffer. Proteins were separated by SDS-PAGE gel electrophoresis and detected by western blot against UBE1 (Abcam ab34711). […] Conjugation of ubiquitin to E2 by E1 is monitored by conversion of free E2 (17 kDa) to E2˜ubiquitin conjugate (26 kDa). Quantitation of percent inhibition was calculated from densitometry of silver stain images.

Assay [2] addresses T2, native UBA1 in HeLa cell lysate (human, UniProt P22314 2-1058, limits assumed).
T2 construct: Endogenous protein in HeLa cell lysate or S100 fraction; also called UBE1
T2 sequence: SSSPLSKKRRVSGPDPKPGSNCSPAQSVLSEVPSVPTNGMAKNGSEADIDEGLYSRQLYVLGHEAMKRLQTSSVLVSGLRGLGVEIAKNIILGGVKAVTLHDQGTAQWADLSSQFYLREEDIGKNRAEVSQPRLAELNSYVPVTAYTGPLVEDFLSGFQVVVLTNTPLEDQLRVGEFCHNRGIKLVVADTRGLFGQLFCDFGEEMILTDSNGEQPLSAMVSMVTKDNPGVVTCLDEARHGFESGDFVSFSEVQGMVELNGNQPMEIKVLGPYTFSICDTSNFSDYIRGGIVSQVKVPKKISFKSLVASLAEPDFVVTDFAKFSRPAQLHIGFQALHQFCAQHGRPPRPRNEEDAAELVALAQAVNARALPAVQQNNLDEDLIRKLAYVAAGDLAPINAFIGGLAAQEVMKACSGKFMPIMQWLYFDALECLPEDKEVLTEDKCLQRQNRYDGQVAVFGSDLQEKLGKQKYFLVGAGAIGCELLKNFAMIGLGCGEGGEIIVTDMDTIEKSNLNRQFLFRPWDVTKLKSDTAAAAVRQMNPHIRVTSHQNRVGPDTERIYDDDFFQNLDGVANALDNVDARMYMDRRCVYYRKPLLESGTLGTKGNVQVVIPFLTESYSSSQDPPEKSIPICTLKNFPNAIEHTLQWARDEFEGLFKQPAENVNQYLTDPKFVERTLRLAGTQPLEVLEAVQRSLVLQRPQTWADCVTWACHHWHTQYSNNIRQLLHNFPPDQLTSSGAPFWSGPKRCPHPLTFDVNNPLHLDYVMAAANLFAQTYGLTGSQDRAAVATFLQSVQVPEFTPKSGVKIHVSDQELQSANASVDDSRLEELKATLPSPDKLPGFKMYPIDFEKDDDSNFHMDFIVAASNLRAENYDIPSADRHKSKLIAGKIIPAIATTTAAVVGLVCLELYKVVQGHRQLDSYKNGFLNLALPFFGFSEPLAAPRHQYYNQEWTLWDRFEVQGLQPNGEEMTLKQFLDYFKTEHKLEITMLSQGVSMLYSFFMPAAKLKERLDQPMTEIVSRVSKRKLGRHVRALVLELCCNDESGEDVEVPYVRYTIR
The experiment in a line: streptavidin-biotin pull-down from HeLa cell lysate, western blot. As for the experimental part: as §1

The target of assay [3] is T3, His-tagged p53 (UniProt P04637 1-393, limits assumed).
T3 construct: Control protein captured on Ni-NTA agarose beads; also called His-p53; unrelated protein control; not shown: His tag
Put plainly: fluorescence microscopy of Ni-NTA agarose beads carrying His-p53, incubated with FITC-labeled peptide.

The target of assay [4] is T1, recombinant human E1 activating enzyme …. The experiment in a line: fluorescence polarization, without and with ubiquitin and ATP. The text has this:
In vitro Binding Assays: To assess the binding and affinity of ligands to acceptor proteins, a fluorescence polarization assay (FPA) can be used, for example. The FPA technique measures the molecular orientation and mobility using polarized light and fluorescent tracer.

In assay [5] the target is T4, His-tagged UBA1 captured on Ni-NTA agarose beads (human, UniProt P22314 1-1058, limits assumed).
T4 construct: also called His-UBA1; His-UBE1; not shown: His tag
T4 sequence: T1 sequence
Put plainly: fluorescence microscopy of Ni-NTA agarose beads carrying His-UBA1; 10 µM FITC-labeled peptide. As for the experimental part:
Fluorescence Microscopy: His-tagged UBA1 (25 μg) was incubated with Ni-NTA agarose beads (100 μl) (Invitrogen™ R90110) in PBS for 30 min. […] Beads were plated in 386-well plate format (10 μl/well) (Corning 384-well High Content Imaging Glass Bottom Microplate) and imaged with an Olympus wide-field epifluorescence microscope, a 63× LCPlanFL NA 0.7 objective, and a CoolSNAP DYNO camera.

T3 sequence (P04637 whole entry): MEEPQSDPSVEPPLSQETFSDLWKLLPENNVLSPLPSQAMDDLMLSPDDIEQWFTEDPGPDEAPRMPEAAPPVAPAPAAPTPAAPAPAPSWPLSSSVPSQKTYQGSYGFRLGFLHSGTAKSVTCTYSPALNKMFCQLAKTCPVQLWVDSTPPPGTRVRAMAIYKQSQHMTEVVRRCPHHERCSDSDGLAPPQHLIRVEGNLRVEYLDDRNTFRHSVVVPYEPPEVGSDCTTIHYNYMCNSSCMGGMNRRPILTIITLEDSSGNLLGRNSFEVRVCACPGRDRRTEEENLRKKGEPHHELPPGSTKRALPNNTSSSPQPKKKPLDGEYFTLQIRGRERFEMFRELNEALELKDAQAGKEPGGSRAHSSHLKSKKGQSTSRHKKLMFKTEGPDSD

B1: C-terminally biotinylated SAH-UBE2A (peptide)
peptide: Ac-[Nle]STP[R8]RRRL[Nle]R[S5]FKRLQ-biotin
modifications: staple 5-12
notes: also called biotinylated peptide; not shown: C-terminal biotin handle
On to B1, for which the binding result in assay [1] and in assay [2] was “binds” in each case.

B2: FITC-SAH-UBE2A (FITC conjugated to SEQ ID NO: 132) (peptide)
peptide: [Nle]STP[R8]RRRL[Nle]R[S5]FKRLQ-{FITC′}
modifications: staple 5-12
notes: also called FITC-labeled SAH-UBE2A-11; FITC-labeled peptide
As to B2, the binding result in assay [3] is listed as “no binding (tested: 10 µM)”; in assay [4], “binds”; in assay [5] it was “binds”.
